Paper PMC4012256

Assay: HEK293T adhesion to FN-coated surface, crystal violet, Ca2+-Mg2+
Conditions: glycan lost; control: αVβ3(N339S)

B1: integrin αV subunit (of αVβ3): αV(N266Q)β3(N339S) (protein)
parent chain: MAFPPRRRLRLGPRGLPLLLSGLLLPLCRAFNLDVDSPAEYSGPEGSYFGFAVDFFVPSASSRMFLLVGAPKANTTQPGIVEGGQVLKCDWSSTRRCQPIEFDATGNRDYAKDDPLEFKSHQWFGASVRSKQDKILACAPLYHWRTEMKQEREPVGTCFLQDGTKTVEYAPCRSQDIDADGQGFCQGGFSIDFTKADRVLLGGPGSFYWQGQLISDQVAEIVSKYDPNVYSIKYNNQLATRTAQAIFDDSYLGYSVAVGDFNGDGIDDFVSGVPRAARTLGMVYIYDGKNMSSLYNFTGEQMAAYFGFSVAATDINGDDYADVFIGAPLFMDRGSDGKLQEVGQVSVSLQRASGDFQTTKLNGFEVFARFGSAIAPLGDLDQDGFNDIAIAAPYGGEDKKGIVYIFNGRSTGLNAVPSQILEGQWAARSMPPSFGYSMKGATDIDKNGYPDLIVGAFGVDRAILYRARPVITVNAGLEVYPSILNQDNKTCSLPGTALKVSCFNVRFCLKADGKGVLPRKLNFQVELLLDKLKQKGAIRRALFLYSRSPSHSKNMTISRGGLMQCEELIAYLRDESEFRDKLTPITIFMEYRLDYRTAADTTGLQPILNQFTPANISRQAHILLDCGEDNVCKPKLEVSVDSDQKKIYIGDDNPLTLIVKAQNQGEGAYEAELIVSIPLQADFIGVVRNNEALARLSCAFKTENQTRQVVCDLGNPMKAGTQLLAGLRFSVHQQSEMDTSVKFDLQIQSSNLFDKVSPVVSHKVDLAVLAAVEIRGVSSPDHVFLPIPNWEHKENPETEEDVGPVVQHIYELRNNGPSSFSKAMLHLQWPYKYNNNTLLYILHYDIDGPMNCTSDMEINPLRIKISSLQTTEKNDTVAGQGERDHLITKRDLALSEGDIHTLGCGVAQCLKIVCQVGRLDRGKSAILYVKSLLWTETFMNKENQNHSYSLKSSASFNVIEFPYKNLPIEDITNSTLVTTNVTWGIQPAPMPVPVWVIILAVLAGLLLLAVLVFVMYRMGFFKRVRPPQEEQEREQLQPHENGEGNSET
With B1 as the protein, how does the “other: cell adhesion, percent_of_wt” value read?
Its value is “decreases”.
